# Source: the Human Domainome abundance scans (Beltran et al. 2025)
# ± gives the uncertainty stated by the source.
# B1: Receptor-interacting serine/threonine-protein kinase 2, residues 438 to 518; numbered along this chain, O43353 (parent)
# chain: QWIQSKREDIVNQMTEACLNQSLDALLSRDLIMKEDYELVSTKPTRTSKVRQLLDTTDIQGEEFAKVIVQKLKDNKQMGLQ
# Variants of: B1
# Assay: abundance fitness (aPCA) (normalised: wild type 0, dead -1); higher = more abundant; growth selection in yeast, the domain comes from the species named
# Conditions: Homo sapiens
row,Variant,abundance fitness
1,QWIQSKREDIVNQMTEACLNQSLDALLSRDLIMKEDYELVSTKPTRTSKVRQLLDTHDIQGEEFAKVIVQKLKDNKQMGLQ,-0.268 ± 0.091
2,QWIQSKREDIVNQMTEACLNQSLDALLSRDLIMKEDYELVSTKPTRTSKVRQLLDTIDIQGEEFAKVIVQKLKDNKQMGLQ,0.044 ± 0.25
3,QWIQSKREDIVNQMTEACLNQSLDALLSRDLIMKEDYELVSTKPTRTSKVRQLLDTLDIQGEEFAKVIVQKLKDNKQMGLQ,-0.002 ± 0.049
4,QWIQSKREDIVNQMTEACLNQSLDALLSRDLIMKEDYELVSTKPTRTSKVRQLLDTMDIQGEEFAKVIVQKLKDNKQMGLQ,0.108 ± 0.1
5,QWIQSKREDIVNQMTEACLNQSLDALLSRDLIMKEDYELVSTKPTRTSKVRQLLDTNDIQGEEFAKVIVQKLKDNKQMGLQ,-0.684 ± 0.37
6,QWIQSKREDIVNQMTEACLNQSLDALLSRDLIMKEDYELVSTKPTRTSKVRQLLDTPDIQGEEFAKVIVQKLKDNKQMGLQ,-0.04 ± 0.05
7,QWIQSKREDIVNQMTEACLNQSLDALLSRDLIMKEDYELVSTKPTRTSKVRQLLDTQDIQGEEFAKVIVQKLKDNKQMGLQ,0.01 ± 0.089
8,QWIQSKREDIVNQMTEACLNQSLDALLSRDLIMKEDYELVSTKPTRTSKVRQLLDTSDIQGEEFAKVIVQKLKDNKQMGLQ,0.128 ± 0.062
9,QWIQSKREDIVNQMTEACLNQSLDALLSRDLIMKEDYELVSTKPTRTSKVRQLLDTVDIQGEEFAKVIVQKLKDNKQMGLQ,0.046 ± 0.055
10,QWIQSKREDIVNQMTEACLNQSLDALLSRDLIMKEDYELVSTKPTRTSKVRQLLDTWDIQGEEFAKVIVQKLKDNKQMGLQ,-0.738 ± 0.14
11,QWIQSKREDIVNQMTEACLNQSLDALLSRDLIMKEDYELVSTKPTRTSKVRQLLDTYDIQGEEFAKVIVQKLKDNKQMGLQ,-0.658 ± 0.17
12,QWIQSKREDIVNQMTEACLNQSLDALLSRDLIMKEDYELVSTKPTRTSKVRQLLDTTAIQGEEFAKVIVQKLKDNKQMGLQ,0.021 ± 0.053
13,QWIQSKREDIVNQMTEACLNQSLDALLSRDLIMKEDYELVSTKPTRTSKVRQLLDTTCIQGEEFAKVIVQKLKDNKQMGLQ,0.035 ± 0.096
14,QWIQSKREDIVNQMTEACLNQSLDALLSRDLIMKEDYELVSTKPTRTSKVRQLLDTTEIQGEEFAKVIVQKLKDNKQMGLQ,0.107 ± 0.1
15,QWIQSKREDIVNQMTEACLNQSLDALLSRDLIMKEDYELVSTKPTRTSKVRQLLDTTFIQGEEFAKVIVQKLKDNKQMGLQ,0.001 ± 0.17
16,QWIQSKREDIVNQMTEACLNQSLDALLSRDLIMKEDYELVSTKPTRTSKVRQLLDTTHIQGEEFAKVIVQKLKDNKQMGLQ,0.026 ± 0.11
17,QWIQSKREDIVNQMTEACLNQSLDALLSRDLIMKEDYELVSTKPTRTSKVRQLLDTTIIQGEEFAKVIVQKLKDNKQMGLQ,-0.007 ± 0.13

row,Variant,abundance fitness
1,QWIQSKREDIVNQMTEACLNQSLDALLSRDLIMKEDYELVSTKPTRTSKVRQLLDTTLIQGEEFAKVIVQKLKDNKQMGLQ,-0.047 ± 0.071
2,QWIQSKREDIVNQMTEACLNQSLDALLSRDLIMKEDYELVSTKPTRTSKVRQLLDTTMIQGEEFAKVIVQKLKDNKQMGLQ,-0.033 ± 0.09
3,QWIQSKREDIVNQMTEACLNQSLDALLSRDLIMKEDYELVSTKPTRTSKVRQLLDTTNIQGEEFAKVIVQKLKDNKQMGLQ,-0.141 ± 0.42
4,QWIQSKREDIVNQMTEACLNQSLDALLSRDLIMKEDYELVSTKPTRTSKVRQLLDTTPIQGEEFAKVIVQKLKDNKQMGLQ,0.172 ± 0.064
5,QWIQSKREDIVNQMTEACLNQSLDALLSRDLIMKEDYELVSTKPTRTSKVRQLLDTTQIQGEEFAKVIVQKLKDNKQMGLQ,0.041 ± 0.087
6,QWIQSKREDIVNQMTEACLNQSLDALLSRDLIMKEDYELVSTKPTRTSKVRQLLDTTRIQGEEFAKVIVQKLKDNKQMGLQ,-0.154 ± 0.058
7,QWIQSKREDIVNQMTEACLNQSLDALLSRDLIMKEDYELVSTKPTRTSKVRQLLDTTTIQGEEFAKVIVQKLKDNKQMGLQ,-0.015 ± 0.07
8,QWIQSKREDIVNQMTEACLNQSLDALLSRDLIMKEDYELVSTKPTRTSKVRQLLDTTVIQGEEFAKVIVQKLKDNKQMGLQ,0.041 ± 0.069
9,QWIQSKREDIVNQMTEACLNQSLDALLSRDLIMKEDYELVSTKPTRTSKVRQLLDTTWIQGEEFAKVIVQKLKDNKQMGLQ,-0.081 ± 0.08
10,QWIQSKREDIVNQMTEACLNQSLDALLSRDLIMKEDYELVSTKPTRTSKVRQLLDTTYIQGEEFAKVIVQKLKDNKQMGLQ,-0.259 ± 0.17
11,QWIQSKREDIVNQMTEACLNQSLDALLSRDLIMKEDYELVSTKPTRTSKVRQLLDTTDCQGEEFAKVIVQKLKDNKQMGLQ,-0.029 ± 0.26
12,QWIQSKREDIVNQMTEACLNQSLDALLSRDLIMKEDYELVSTKPTRTSKVRQLLDTTDGQGEEFAKVIVQKLKDNKQMGLQ,0.143 ± 0.29
13,QWIQSKREDIVNQMTEACLNQSLDALLSRDLIMKEDYELVSTKPTRTSKVRQLLDTTDKQGEEFAKVIVQKLKDNKQMGLQ,0.17 ± 0.26
14,QWIQSKREDIVNQMTEACLNQSLDALLSRDLIMKEDYELVSTKPTRTSKVRQLLDTTDLQGEEFAKVIVQKLKDNKQMGLQ,0.231 ± 0.23
15,QWIQSKREDIVNQMTEACLNQSLDALLSRDLIMKEDYELVSTKPTRTSKVRQLLDTTDSQGEEFAKVIVQKLKDNKQMGLQ,-0.29 ± 0.27
16,QWIQSKREDIVNQMTEACLNQSLDALLSRDLIMKEDYELVSTKPTRTSKVRQLLDTTDVQGEEFAKVIVQKLKDNKQMGLQ,-0.171 ± 0.2
17,QWIQSKREDIVNQMTEACLNQSLDALLSRDLIMKEDYELVSTKPTRTSKVRQLLDTTDYQGEEFAKVIVQKLKDNKQMGLQ,-0.342 ± 0.29
